Source: patent US20220331363A1

Biological target: human Burkitt's lymphoma cell Daudi
Assay: flow cytometry (FACS) on Daudi cells, which Example 3 says do not express BCMA

“murine anti-BCMA antibody C11D5.3 (scFv), reference antibody” was tested, and the EC50 was 58.2 µg/mL.
